From patent publication US20150246947A1 (BAXALTA, published 2015)
Read-outs that look alike come from different tables or passages of the source.

Columns and labels:
human Protein S [1] = molecular target: T1, human Protein S (human, UniProt P07225 42-676); assay: cell-based or functional assay
T1 sequence: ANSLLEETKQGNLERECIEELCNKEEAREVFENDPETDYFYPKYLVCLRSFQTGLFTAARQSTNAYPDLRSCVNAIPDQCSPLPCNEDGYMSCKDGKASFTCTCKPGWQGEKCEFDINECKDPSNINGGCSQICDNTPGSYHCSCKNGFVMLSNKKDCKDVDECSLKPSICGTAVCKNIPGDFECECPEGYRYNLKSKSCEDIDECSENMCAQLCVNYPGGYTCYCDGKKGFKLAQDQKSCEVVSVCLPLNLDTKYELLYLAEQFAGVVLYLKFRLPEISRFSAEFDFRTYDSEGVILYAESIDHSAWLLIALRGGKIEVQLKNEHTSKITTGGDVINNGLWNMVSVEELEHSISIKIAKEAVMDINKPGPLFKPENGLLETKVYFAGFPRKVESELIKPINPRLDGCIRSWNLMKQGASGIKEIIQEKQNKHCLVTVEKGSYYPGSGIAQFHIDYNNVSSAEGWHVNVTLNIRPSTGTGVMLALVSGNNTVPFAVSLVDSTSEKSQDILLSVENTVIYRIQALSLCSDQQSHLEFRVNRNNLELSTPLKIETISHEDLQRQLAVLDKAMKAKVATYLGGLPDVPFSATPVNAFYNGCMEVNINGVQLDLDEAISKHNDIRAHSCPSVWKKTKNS

human Protein S [2] = molecular target: T1, human Protein S; assay: cell-based or functional assay; remark: listed apart in the source
human Protein S [3] = molecular target: T1, human Protein S; assay: LANCE TR-FRET; peptide added to preformed C4BP/Protein S complex; competitor C4BP
Procedure: To investigate the effect of the peptides described herein on PS/C4BP complexes, a LANCE IC50 assay was established using methods similar to those described above. JBS2572 or JBS3216 was added to a preformed C4BP/PS complex. Changes in the complex concentration were followed by recording the TR-FRET signal. For both peptides, a time- and concentration-dependent dissociation of the C4BP/PS complex was observed. […] The time-dependency of the complex reduction was similar for both peptides. After two hours of incubation in the presence of 100 nM JBS2572 or JBS3216, the C4BP/PS complex was reduced to 60% and 50%, respectively. In addition, binding of biotinylated JBS2572 to Protein S was inhibited by C4BP in the LANCE IC50 assay. Pull-down experiments where JBS2697 was coupled to streptavidin sepharose and incubated for one hour at room temperature with (a) Protein S (1.6 pmol) (b) C4BP (8.5 pmol) and (c) Protein S (1.6 pmol)+C4BP (8.5 pmol) supported the results from the modified LANCE IC50 assay. JBS2697 interacted with free Protein S only from experiment (a) with Protein S alone and from experiment (c) with the C4BP-Protein S mixture.

human Protein S [4] = molecular target: T1, human Protein S; assay: competition ELISA; Protein S coated; competitor biotinylated tracer JBS0684
Procedure: The competition (IC50) ELISA was performed using biotinylated tracer peptide JBS0684 to compete for Protein S-binding with candidate peptides. Peptides that compete with the tracer bind the same region of Protein S as the tracer (and each other). Ninety-six well PolySorp plates (Nunc) were coated with 3 μg/mL Protein S in coating buffer (15 mM Na₂CO₃, 35 mM NaHCO₃, pH 9.6) over night. […] Plates were then washed three times with HNaT. JBS0684 was applied at a concentration corresponding to the EC90 value determined in the binding ELISA. A competitor stock solution of peptide (10 mM) was diluted 1/33.3 in HNaT without HSA, and a serial 1/3 dilution was prepared with HNaT with 3% DMSO. The dilution was further diluted with the biotinylated tracer peptide in a ratio of 1:6 (20 μl competitor dilution and 100 μl tracer peptide). The mixture of competitor and tracer peptide was applied to the Protein S-coated microtiter plate and incubated for 1.5 hours. The plates were washed three times with HNaT. Peptide-Protein S binding was detected by applying HRP-conjugated streptavidin to the microtiter plate, incubating the mixture for one hour, washing the plate three times with HNaT, applying TMB (3,3′5,5′-Tetramethylbenzidin), and detecting the subsequent chromogenic conversion of TMB by HRP. IC50 measurements of peptides are provided herein (see, e.g., Table 3).

human Protein S [5] = molecular target: T1, human Protein S; assay: Biacore (SPR), Protein S immobilized, 37 °C
Procedure: Protein S affinity also was determined via Biacore (Biacore 3000 or Biacore T200) using human full-length Protein S and human GAS6. Briefly, 1000 RU of Protein S or GAS6 were immobilized on a CMS chip. In order to probe the kinetics of Protein S binding peptides to Protein S, the peptides were injected at various concentrations in a HBS-buffer containing 3 mM CaCl₂ and 1% DMSO to the flow cell and allowed to interact with the immobilized proteins on the sensor chip. The chip could be regenerated with 4 M MgCl₂ in HBS-buffer. Sensorgrams were fitted to a Langmuir binding model for the determination of kₒₙ and koff and the calculation of KD. Peptides were tested on their specificity to Protein S with peptide binding studies on the anti-target GAS6.

human Protein S [6] = molecular target: T1, human Protein S; assay: cell-based or functional assay; remark: listed apart in the source
human Protein S [7] = molecular target: T1, human Protein S; assay: LANCE TR-FRET competition; Protein S 2 nM, competitor tracer JBS0684 60 nM; Tecan F500 reader
Procedure: Peptides also were characterized in a competition, homogenous europium-based TR-FRET assay (LANCE IC50 assay) using JBS0684 as a tracer (i.e., competitor for Protein S binding). […] The final volume was 50 μl/well. […] Binding of tracer peptides to soluble europium-labeled Protein S was detected by Streptavidin labeled with an acceptor fluorophor (ULight™). Inhibition of tracer-binding to Protein S by a non-biotinylated peptide results in a decrease of TR-FRET between the Eu-labeled Protein S and ULight™-labeled Streptavidin. IC50 values were obtained from peptide titration curves at constant tracer concentration using non-linear regression of the fluorescence emission signals at 665 nm.

Ac-TGLVSAGWYDYNFDHYREFT-NH2 (also called parent peptide JBS2572) [JBS2572]
CAT EC50 (human Protein S [1]): 14 nM | fold increase of activity in the CAT-assay compared to JBS2512 (human Protein S [2]): 1.6 fold | IC50 (human Protein S [3]): 2 nM | IC50 (human Protein S [4]): 2.5 nM | Kd (human Protein S [5]): 3.8 nM | koff (human Protein S [5]): 0.00431 s⁻¹ | kon (human Protein S [5]): 1.14e+06 M⁻¹ s⁻¹ | CAT EC50 (human Protein S [6]): 151 nM | IC50 (human Protein S [7]): ~10 nM
